21 molecules from patent US20230055711A1 (BIOSION, published 2023) can be followed below.

Assay [1] deals with T1, cynomolgus BCMA-his protein (Acro biosystems, Cat #BCA-052H7) (cynomolgus monkey, UniProt A0A2K5UD97 1-53).
T1 construct: Bought; also called cynomolgus monkey BCMA protein; not shown: his tag
The experiment in a line: indirect ELISA on coated cynomolgus BCMA-his. In general terms: In an ELISA, binding on a coated surface is turned into a signal by an enzyme label.

Assay [2] addresses recombinant human BCMA-his protein (Acro biosystems, Cat #BCA-H522Y) (human) (UniProt Q02223). In words: SPR Biacore, antibody captured by anti-human IgG on CM5, BCMA-his flowed. (In general: SPR reads the build-up and loss of mass on a sensor chip optically.)
The target in assay [3] is T2, human BCMA on 293F-BCMA cells (human, UniProt Q02223 1-184).
T2 construct: Stably expressed on 293F cells prepared in house; also called 293F cells expressing human BCMA; Full length human BCMA
T2 sequence: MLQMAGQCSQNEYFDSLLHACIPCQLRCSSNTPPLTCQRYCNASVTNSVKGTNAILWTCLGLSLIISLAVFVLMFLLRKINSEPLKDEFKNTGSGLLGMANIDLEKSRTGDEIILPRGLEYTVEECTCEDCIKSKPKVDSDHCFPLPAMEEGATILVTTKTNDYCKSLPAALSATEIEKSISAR
In words: cell based binding FACS on 293F cells expressing human BCMA, MFI.

Assay [4] addresses recombinant human BCMA-his protein (Acro biosystems, Cat #BCA-H522Y) (human) (UniProt Q02223). In words: BLI Octet RED96, antibody on AHC sensor, BCMA-his in solution. (In BLI a coated tip is dipped into the sample, and binding shifts an interference pattern.)
The target is the same in assay [5]. In words: capture ELISA: antibody captured on the plate, biotin-labeled human BCMA-his detected with streptavidin-HRP.
Assay [6] shares this target. In words: competitive ELISA: antibody pre-mixed with biotin-labeled human BCMA-his, competitor coated BCMA BM1.
Another assay has as its target T3, human BCMA on U266 cells (human, UniProt Q02223 1-184).
T3 sequence (looked up): T2 sequence
In words: cell-based or functional assay.

The target in assay [7] is recombinant human BCMA-his protein (Acro biosystems, Cat #BCA-H522Y) (human) (UniProt Q02223). The experiment in a line: competitive ELISA: coated human BCMA-his, blocked ligand biotin-labeled BAFF-Fc.

Where a chain is given by its changes, count along the chain named.

T1 sequence (A0A2K5UD97 entry or part of it): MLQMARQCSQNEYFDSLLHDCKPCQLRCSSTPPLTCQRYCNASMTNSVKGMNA

B1: chimeric B1H2 antibody (antibody, human IgG1, kappa, V domains shown)
VH: EVQLQQSGPELVKPGASVKMSCKASGYTLTNYVMHWMKQKPGQGLEWIGFIIPFNDGTKYNEHFKGKATLTSDKSSNTAYMVLSSLTSEDSAVYYCARYDFEGYFDVWGAGTTVTVSS
VL: DIQMTQTTSSLSASLGDRVTISCSASQDITNFLNWYQQKPDGTVKLLIYSTSRLHSGVPSRFSGSGSGTDYSLTISNLEPEDIATYYCQQYSNLPWTFGGGTNLEIKR
notes: Mouse variable domains fused to human IgG1 / kappa constant regions, made in 293F cells
For B1, the EC50 (usually the midpoint of the concentration-response curve) in assay [1] worked out at 190 nM; in assay [3], 0.953 nM; in assay [5], 0.226 nM. For the same molecule, the Kd (usually the concentration at which binding is half-saturated) worked out at 0.0839 nM in assay [2] and 0.673 nM in assay [4].

B2: huB1H2-V10 (antibody, human IgG1, kappa, V domains shown)
VH: QVQLVQSGAEVKKPGASVKVSCKASGYTLTNYVMHWVRQAPGQGLEWIGFIIPFNDGTKYNEHFKGRVTITSDTSISTAYMQLSSLRSEDTAVYYCARYDFEGYFDVWGQGTLVTVSS
VL: DIQMTQSPSSLSASVGDRVTITCSASQDITNFLNWYQQKPGKAPKLLIYSTSRLHSGVPSRFSGSGSGTDFTLTISSLQPEDIATYYCQQYSNLPWTFGQGTKVEIKR
notes: Humanized IgG1/kappa; cell supernatant in the Octet assay, purified antibody in Biacore, ELISA and FACS
B2: the EC50 is ~25400 nM in assay [1], 1.2 nM in assay [3] and 0.47 nM in assay [5]. The Kd was found to be 0.289 nM in assay [2] and 2.02 nM in assay [4]. Moreover, the koff (in general, the rate constant with which the complex falls apart) was 0.00788 s⁻¹ in assay [2] and 0.000733 s⁻¹ in assay [4]. Moreover, the on-rate constant (kon) (usually the rate constant with which the complex forms) in assay [2] turned out to be 2.73e+07 M⁻¹ s⁻¹; in assay [4], 363000 M⁻¹ s⁻¹. Moreover, the IC50 (usually the concentration that inhibits the measured activity by half) in assay [6] turned out to be 1.51 nM; in assay [7], 10.2 nM. Moreover, the “IC50 (nM), cell killing activity of antibody-DT3C conjugate on U266 cells (internalization assay)” value with human BCMA on U266 cells is 0.19 nM. Further, in the assay with human BCMA on U266 cells, the “Max inhibition on cell viability (%), antibody-DT3C conjugate on U266 cells” value was determined as 99.7%.

B3: huB1H2-V16 (antibody, human IgG1, kappa, V domains shown)
VH: B2 VH
VL: B2 VL with P44V
Consider B3, for which, in assay [4], the Kd stood at 3.5 nM, the koff stood at 0.000887 s⁻¹ and the association rate constant (kon) was 254000 M⁻¹ s⁻¹.

B4: huB1H2-V2 (antibody, human IgG1, kappa, V domains shown)
VH: B2 VH with S72R
VL: B2 VL with A43T, P44V, F71Y, L73F
Consider B4, for which, in assay [4], the Kd was determined as 1.29 nM, the off-rate (koff) worked out at 0.000742 s⁻¹ and the association rate constant (kon) stood at 573000 M⁻¹ s⁻¹.

B5: huB1H2-V21 (antibody, human IgG1, kappa, V domains shown)
VH: B2 VH with V37M, S72R
VL: B2 VL with F71Y
Consider B5, for which, in assay [4], the Kd was 7.12 nM, the koff turned out to be 0.00142 s⁻¹ and the kon was found to be 199000 M⁻¹ s⁻¹.

B6: huB1H2-V15 (antibody, human IgG1, kappa, V domains shown)
VH: B2 VH with V37M, S72R
VL: B2 VL with P44V
Take B6: in assay [4], the Kd worked out at 6.06 nM, the off-rate (koff) was found to be 0.00137 s⁻¹ and the kon was 226000 M⁻¹ s⁻¹.

B7: huB1H2-V6 (antibody, human IgG1, kappa, V domains shown)
VH: B2 VH with T74K
VL: B2 VL with A43T, P44V, F71Y, L73F
On to B7, for which, in assay [4], the Kd was 1.12 nM, the koff was 0.00044 s⁻¹ and the kon came to 392000 M⁻¹ s⁻¹.

B8: huB1H2-V3 (antibody, human IgG1, kappa, V domains shown)
VH: B2 VH with V37M, S72R
VL: B2 VL with A43T, P44V, F71Y, L73F
Regarding B8, in assay [4], the Kd stood at 0.731 nM, the koff was found to be 0.000402 s⁻¹ and the kon was 550000 M⁻¹ s⁻¹.

B9: huB1H2-V17 (antibody, human IgG1, kappa, V domains shown)
VH: B2 VH with S72R, T74K
VL: B2 VL with P44V
B9: in assay [4], the Kd was 9.16 nM, the koff was determined as 0.00238 s⁻¹ and the kon worked out at 260000 M⁻¹ s⁻¹.

B10: huB1H2-V23 (antibody, human IgG1, kappa, V domains shown)
VH: B2 VH with S72R, T74K
VL: B2 VL with F71Y
Take B10: in assay [4], the Kd was determined as 20.4 nM, the koff was 0.00214 s⁻¹ and the kon turned out to be 105000 M⁻¹ s⁻¹.

B11: huB1H2-V14 (antibody, human IgG1, kappa, V domains shown)
VH: B2 VH with S72R
VL: B2 VL with P44V
Take B11: in assay [4], the Kd is 5.14 nM, the dissociation rate constant (koff) was found to be 0.00137 s⁻¹ and the kon was found to be 266000 M⁻¹ s⁻¹.

B12: huB1H2-V4 (antibody, human IgG1, kappa, V domains shown)
VH: B2 VH
VL: B2 VL with A43T, P44V, F71Y, L73F
Regarding B12, in assay [4], the Kd is 0.269 nM, the koff stood at 0.00029 s⁻¹ and the kon turned out to be 1.08e+06 M⁻¹ s⁻¹.

B13: huB1H2-V24 (antibody, human IgG1, kappa, V domains shown)
VH: B2 VH with T74K
VL: B2 VL with F71Y
Take B13: in assay [4], the Kd turned out to be 6.1 nM, the koff is 0.001 s⁻¹ and the on-rate (kon) was 164000 M⁻¹ s⁻¹.

B14: huB1H2-V1 (antibody, human IgG1, kappa, V domains shown)
VH: B2 VH with Q1E, A16S, V37M, V68A, I70L, T74K, I76T, S77N, Q82E, Q110A
VL: B2 VL with A43T, P44V, F71Y, L73F
As for B14, in assay [4], the Kd was 1.22 nM, the koff was determined as 0.000498 s⁻¹ and the association rate constant (kon) worked out at 407000 M⁻¹ s⁻¹.

B15: huB1H2-V22 (antibody, human IgG1, kappa, V domains shown)
VH: B2 VH
VL: B2 VL with F71Y
As to B15, in assay [4], the Kd came to 3.77 nM, the koff was determined as 0.000862 s⁻¹ and the kon worked out at 229000 M⁻¹ s⁻¹.

B16: huB1H2-V20 (antibody, human IgG1, kappa, V domains shown)
VH: B2 VH with S72R
VL: B2 VL with F71Y
Consider B16, for which, in assay [4], the Kd is 6 nM, the koff worked out at 0.00141 s⁻¹ and the kon came out at 234000 M⁻¹ s⁻¹.

B17: huB1H2-V19 (antibody, human IgG1, kappa, V domains shown)
VH: B2 VH with Q1E, A16S, V37M, V68A, I70L, T74K, I76T, S77N, Q82E, Q110A
VL: B2 VL with F71Y
On to B17, for which, in assay [4], the Kd came out at 2.65 nM, the koff was 0.000647 s⁻¹ and the kon was 244000 M⁻¹ s⁻¹.

B18: huB1H2-V13 (antibody, human IgG1, kappa, V domains shown)
VH: B2 VH with Q1E, A16S, V37M, V68A, I70L, T74K, I76T, S77N, Q82E, Q110A
VL: B2 VL with P44V
As to B18, in assay [4], the Kd is 2.21 nM, the koff came out at 0.000688 s⁻¹ and the kon was 312000 M⁻¹ s⁻¹.

B19: huB1H2-V5 (antibody, human IgG1, kappa, V domains shown)
VH: B2 VH with S72R, T74K
VL: B2 VL with A43T, P44V, F71Y, L73F
Regarding B19, in assay [4], the Kd was 0.915 nM, the koff was 0.000372 s⁻¹ and the kon turned out to be 407000 M⁻¹ s⁻¹.

B20: huB1H2-V18 (antibody, human IgG1, kappa, V domains shown)
VH: B2 VH with T74K
VL: B2 VL with P44V
On to B20, for which, in assay [4], the Kd was determined as 2.22 nM, the koff was 0.000921 s⁻¹ and the kon turned out to be 415000 M⁻¹ s⁻¹.

B21: huB1H2-V33 (antibody, human IgG1, kappa, V domains shown)
VH: B2 VH
VL: B2 VL with L73F
notes: as for B2
As for B21, the 50% effective concentration (EC50) in assay [1] is ~176 nM; in assay [3], 0.865 nM; in assay [5], 0.439 nM. Besides, the Kd in assay [2] and in assay [4] was 0.349 nM throughout. The koff in assay [2] and in assay [4] was 0.00341 s⁻¹ in each case. The kon in assay [2] and in assay [4] was 9.76e+06 M⁻¹ s⁻¹ in each case. For the same molecule, the IC50 in assay [6] came out at 1.45 nM; in assay [7], 7.05 nM. For the same molecule, in the assay with human BCMA on U266 cells, the “IC50 (nM), cell killing activity of antibody-DT3C conjugate on U266 cells (internalization assay)” value came to 0.14 nM. Moreover, the “Max inhibition on cell viability (%), antibody-DT3C conjugate on U266 cells” value in the assay with human BCMA on U266 cells was 99.9%.
